Experimental findings from patent US20240254223A1 (published 2024) are described below.

The assay concerns the target His-tagged human CD47 (human, UniProt Q08722 19-139).

A word on the Kd: it is the constant that tells how readily two partners part at equilibrium. The low end stands for a tighter complex, the high end for a looser complex.

Chain of His-tagged human CD47 (Q08722 19-139): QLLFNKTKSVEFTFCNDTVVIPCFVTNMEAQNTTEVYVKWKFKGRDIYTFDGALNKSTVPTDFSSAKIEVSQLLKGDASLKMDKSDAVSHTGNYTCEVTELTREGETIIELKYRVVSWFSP

B1: pNOVI V2K K33 (antibody, V domains shown)
VH: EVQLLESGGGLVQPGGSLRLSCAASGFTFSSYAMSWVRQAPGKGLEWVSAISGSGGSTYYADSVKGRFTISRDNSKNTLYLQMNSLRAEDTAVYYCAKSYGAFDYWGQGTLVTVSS
VL: DIQMTQSPSSLSASVGDRVTITCRASQSISSYLNWYQQKPGKAPKLLIYAASSLQSGVPSRFSGSGSGTDFTLTISSLQPEDFATYYCQQFHKRSPQKFGQGTKVEIKR
The molecule B1 registered a dissociation constant (Kd) of 56 nM.
